Where a chain is given by its changes, count along the chain named.

T1: hSEMA4D ECD-His (His-tagged human SEMA4D protein extracellular domain, Met22-Arg734) (human, UniProt Q92854 22-734)
T1 construct: Expressed in CHO-S cells, purified on Ni column; also called protein immunogen; immunogen A; not shown: His tag of the pCP vector
T1 sequence: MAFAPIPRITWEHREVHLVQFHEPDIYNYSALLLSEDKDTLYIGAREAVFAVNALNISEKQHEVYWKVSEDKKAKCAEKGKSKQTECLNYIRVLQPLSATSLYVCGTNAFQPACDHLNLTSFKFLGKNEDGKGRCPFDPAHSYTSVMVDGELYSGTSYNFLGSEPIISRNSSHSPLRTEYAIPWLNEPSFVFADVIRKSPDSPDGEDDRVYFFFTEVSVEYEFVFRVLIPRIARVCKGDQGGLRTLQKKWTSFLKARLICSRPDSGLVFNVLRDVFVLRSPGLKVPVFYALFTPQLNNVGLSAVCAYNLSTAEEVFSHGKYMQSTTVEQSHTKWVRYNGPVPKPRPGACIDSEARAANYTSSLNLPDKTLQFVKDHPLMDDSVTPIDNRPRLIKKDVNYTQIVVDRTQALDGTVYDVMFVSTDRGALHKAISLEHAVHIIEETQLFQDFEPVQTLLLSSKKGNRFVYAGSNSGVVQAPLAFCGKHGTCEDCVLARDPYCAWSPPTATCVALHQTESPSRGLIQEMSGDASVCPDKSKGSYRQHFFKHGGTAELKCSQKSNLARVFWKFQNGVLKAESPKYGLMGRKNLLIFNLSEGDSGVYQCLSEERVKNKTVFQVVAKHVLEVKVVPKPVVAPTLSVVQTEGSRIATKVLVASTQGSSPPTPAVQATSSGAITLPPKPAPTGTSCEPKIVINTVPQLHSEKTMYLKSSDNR

T2: human SEMA4D, full length, on CHO-K1 cells (CHO-K1 hSEMA4D) (human, UniProt Q92854 22-862)
T2 construct: whole, on cells; also called human SEMA4D recombinant cells
T2 sequence (looked up): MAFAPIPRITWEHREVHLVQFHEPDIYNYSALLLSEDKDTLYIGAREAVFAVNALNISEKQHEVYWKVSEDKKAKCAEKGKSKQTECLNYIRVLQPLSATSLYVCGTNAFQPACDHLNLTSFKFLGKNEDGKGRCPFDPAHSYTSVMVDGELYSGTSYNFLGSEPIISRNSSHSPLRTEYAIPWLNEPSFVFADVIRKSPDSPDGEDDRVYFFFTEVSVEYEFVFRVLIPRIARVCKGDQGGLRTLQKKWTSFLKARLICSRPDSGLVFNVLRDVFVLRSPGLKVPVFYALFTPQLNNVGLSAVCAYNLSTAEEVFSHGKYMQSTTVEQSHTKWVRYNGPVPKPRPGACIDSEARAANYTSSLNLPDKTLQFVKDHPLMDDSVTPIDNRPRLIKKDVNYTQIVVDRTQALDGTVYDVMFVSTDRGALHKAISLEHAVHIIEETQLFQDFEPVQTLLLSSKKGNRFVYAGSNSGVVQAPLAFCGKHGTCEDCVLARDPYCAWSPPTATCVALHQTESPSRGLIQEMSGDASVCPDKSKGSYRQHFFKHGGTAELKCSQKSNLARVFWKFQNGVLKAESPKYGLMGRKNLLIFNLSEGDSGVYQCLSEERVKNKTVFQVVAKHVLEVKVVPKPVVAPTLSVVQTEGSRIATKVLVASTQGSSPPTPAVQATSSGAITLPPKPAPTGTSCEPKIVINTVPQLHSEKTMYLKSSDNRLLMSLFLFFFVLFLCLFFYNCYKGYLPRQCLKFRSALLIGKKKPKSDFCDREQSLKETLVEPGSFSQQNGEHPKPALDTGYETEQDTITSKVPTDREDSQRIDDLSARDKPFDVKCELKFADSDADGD

B1: 32C8F10 (antibody, V domains shown)
VH: EVQLQQSGAELVRPGASVKLSCTASGFNIKDEYIHWVKQRPEQGLEWIGWIDPANGHTEYASRFQAKATITADTSSNTAYLQLSSLTSEDTAVYYCTTGDYDGFAYWGQGTLVTVST
VL: QIVLTQSPAIMSASPGEKVTISCSARSSVSYMYWYQQKPGSSPKPWIYRTSNLASGVPARFSGSGSGTSYSLTISSMEAEDAATYYCQHYHTYPYTFGGGTKLEIK
notes: Mouse monoclonal antibody purified from hybridoma supernatant on protein A
B2: 31C11G2 (antibody, V domains shown)
VH: B1 VH with A105V
VL: B1 VL with S22F
notes: as for B1
B3: 31G10C5 (antibody, V domains shown)
VH: B1 VH with E32D, T58I, R63N, A105T
VL: B1 VL
notes: as for B1
B4: 42B7G2 (antibody, V domains shown)
VH: QVQLQQSGAELARPGASVKLSCKASGYTFTDYGISWVKQRTGQGLEWIGEIYLRNDNSYYNEKFKGKATLTADKSSNTAYMELRSLTSEDSAVYFCARWGDHGNNYEDAMDYWGQGTSVTVSS
VL: DIVLTQSPASLAMSLGKRATISCRASESVSIIGSNLIHWYQQKPGQPPKLLIYHASNLETGVPARFSGSGSRTDFTLTIDPVEEDDVAIYYCLQSRKVPYTFGGGTKLEIK
notes: as for B1
B5: 37F11F9 (antibody, V domains shown)
VH: EVQLQQSGPVLVKPGASVKMSCKASGYTFTDYYMNWVKQSHGKSLEWIGLINPYSGGSTFNQKFKAKATLTVDKSSSSAYMDLNSLTSEDSAVYYCARVGDGYYGVTHGMDYWGQGTSVTVSS
VL: DIVMTPSQKFMSTTVGDRVSITCKASQNVGTAVAWYQQKPGQSPTILIYSASNRYTGVPDRFTGSGSGTDFTLTISNMKSEDLADYFCQQYYIYPFTFAAGTKLELK
notes: as for B1
B6: 37C4F7 (antibody, V domains shown)
VH: EFQLQQSGPEVVKPGASVKISCKASGYSFTDYNMNWMKQSKGKSLEWIGVINPNYGTTTYNQNFKGKATLTVDQSSSTAYMQLNSLTSEDSAVYYCARDMYYVYAYYTMDYWGQGTSVTVSS
VL: DVVMTQTPLSLPVSLGDQASISCRSSQSLVHSNGHTYLHWYLQRPGQSPTLLIYKVSNRFSGVPDRFSGSGSGTDFTLKISRVEAEDLGVYFCSQGTHVPWTFGGGTKLEIK
notes: as for B1
B7: 38H2E3 (antibody, V domains shown)
VH: B6 VH with N52S, N54D, G66D, R98K, Q114H
VL: B6 VL with F67V, W101R
notes: as for B1

The target in the first experiment is T1, hSEMA4D ECD-His (His-tagged human …). Kind of experiment: ELISA, coated hSEMA4D ECD-His; Ab 0.267 nM. The method, then: First, hSEMA4D ECD-His was diluted with PBS to a final concentration of 1.0 μg/mL, and then was added to a 96-well ELISA plate, 100 μL per well, sealed with plastic film and incubated overnight at 4° C. On the next day, the plate was washed with a plate washing solution, that is, PBS buffer containing 0.05% (v/v) Tween20, for 4 times, and added with blocking solution, that is, PBS buffer containing 0.05% (v/v) Tween20 and 2% (w/w) BSA, blocked at 37° C. for 1 hour. The blocking solution was poured out and the plate was washed 4 times with the plate washing solution. 100 μL of the purified leading antibodies obtained in Examples 1 and 2 was added to each well. After incubation at 37° C. for 1 hour, the plate was washed 4 times with a plate washing solution. 100 μL of horseradish peroxidase (HRP) labeled secondary antibody (purchased from Sigma) was added at a dilution of 1:10000 to each well, and the plate was incubated at 37° C. for 1 hour, and washed 4 times with a plate washing solution. 100 μL TMB substrate was added to each well, and the plate was incubated at room temperature for 5 minutes, and added with 100 μL stop solution (1.0N HCl) to each well. A microplate reader (SpectraMax M5e, purchased from Molecular Device) was used to read the A450 nm value. […] Wherein, the data in the table was the OD450 nm value.
For orientation: ELISA stands for enzyme-linked immunosorbent assay.
Take B1: the OD450 nm turned out to be 1.28.
Same read-out and setting: as for B2, the figure is 1.47.
The same measure, in the same setting: the result for B3 reads 1.15; that for B4, 1.4.
The same measure, in the same setting: the result for B5 reads 0.89; that for B6, 0.41.
B7 returned an OD450 nm of 0.531.

Another experiment deals with T2, human SEMA4D, full length, on CHO-K1 …. Kind of experiment: FACS, CHO-K1 hSEMA4D cells; Ab 0.534 nM. The method, then:
(§1) The medium was aspirated, the cells were washed once with PBS buffer (purchased from Invitrogen), and then treated with cell dissociation fluid (TrypLE™ Express Enzyme, purchased from Life technology), and the cells were collected. After the cells counted, the cells were washed once with PBS phosphate buffer, and diluted to 3×10⁶ cells per milliliter, and added to the 96-well FACS reaction plate as 100 μL per well. 2% (w/w) fetal calf serum was added to PBS phosphate buffer as FACS buffer, with which the cells were washed once by centrifugation at 2000 rpm 4° C. 100 μL of diluted and purified leading antibodies was added to each well and the plate was incubated for 1 hour on ice. […] Cells were washed 2 times by centrifugation with FACS buffer. The cells were suspended with 200 μL of FACS buffer, and FACS (FACS Verse, purchased from BD) was used to detect and analyze the results.
On the technique in general: A flow cytometer gives signals particle by particle.
Regarding B1, the MFI came to 2920.
The molecule B2 returned an MFI of 3140.
Still for that read-out and setting: as for B3, the figure is 3070; as for B4, 2000.
With B5, the MFI stood at 1120.
Same read-out and setting: the result for B6 reads 738; that for B7, 763.

Another experiment shares this target. Kind of experiment: FACS, CHO-K1 hSEMA4D cells; Ab 0.00427 nM. The method, then:
as §1
In turn, B1 yielded an MFI of 86.2.
Still for that read-out and setting: as for B2, the figure is 87.3; as for B3, 85.5.
Still for that read-out and setting: the result for B4 reads 68.9.
Same read-out and setting: the result for B5 reads 51.
The molecule B6 returned an MFI of 45.4.
On the same count and under the same terms, as for B7, the figure is 45.4.

For another experiment, the target named is T3, monkey SEMA4D, full length, on CHO-K1 cells (CHO-K1 cSEMA4D) (monkey).
T3 construct: whole, on cells; also called monkey SEMA4D recombinant cells
Kind of experiment: FACS, CHO-K1 cSEMA4D cells; Ab 13.3 nM. The method, then:
After the cells were counted, they were diluted with PBS to 2×10⁶ cells per milliliter. After washing, 100 μL of diluted and purified leading antibodies was added to each well and the plate was incubated for 1 hour on ice. […] Cells were washed 2 times by centrifugation with FACS buffer. The cells were suspended with 200 μL of FACS buffer, FACS (FACS Verse, purchased from BD) was used to detect and analyze the results.
The molecule B1 showed an MFI of 5590.
Same read-out and setting: the result for B2 reads 4390; that for B3, 4580; that for B4, 2590.
Turning to B5, the MFI stood at 2480.
On the same count and under the same terms, as for B6, the figure is 2790; as for B7, 2800.

The values are drawn from patent publication US20220073608A1 (JIANGSU HUAIYU PHARMACEUTICAL, published 2022).
